One substance from PMC4021362 can be followed below.

Usually Kd stands for the free concentration of one partner at which half of the binding sites on the other are occupied at equilibrium, for simple one-to-one binding.

The series relates to Hydra Myc2 p15;Hydra Max p22 (Hydra magnipapillata?;Hydra magnipapillata?). As to the kind of experiment: EMSA. Particulars: equimolar mixture, heterodimer; EMSA with 0.3 ng (25,000 cpm) 32P-labeled 18-mer dsDNA; binding buffer, salt, pH and temperature not given in the material.

As to E-box USF 18-mer, the Kd came out at 17.4 nM.
